From paper PMC4850634, “Characterization of an A-kinase anchoring protein-like suggests an alternative way of PKA anchoring in Plasmodium falciparum” (Malaria Journal, 2016)

Biological target: the molecule itself
Test: SEC; Superdex S200 10/300 Increase, 20 mM Tris-HCl pH 8, 300 mM NaCl; affinity-purified (His)6 protein; peak fractions checked by 12.5 % SDS-PAGE

B1: (His)6-Pf14-3-3I (natural protein, Plasmodium falciparum, UniProt C0H4V6 1-262, looked up)
chain: MATSEELKQLRCDCTYRSKLAEQAERYDEMADAMRTLVEQCVNNDKDELTVEERNLLSVAYKNAVGARRASWRIISSVEQKEMSKANVHNKNVAATYRKKVEEELNNICQDILNLLTKKLIPNTSESESKVFYYKMKGDYYRYISEFSCDEGKKEASNCAQEAYQKATDIAENELPSTHPIRLGLALNYSVFFYEILNQPHQACEMAKRAFDDAITEFDNVSEDSYKDSTLIMQLLRDNLTLWTSDLQGDQTEEKSKDEGLE
notes: 14-3-3I protein, Plasmodium falciparum, PlasmoDB MAL8P1.69/PF3D7_0818200; amplified from a P. falciparum cDNA library with primers from the start to the stop codon, cloned into pRSFDuet; recombinant protein 30 kDa; source: E. coli BL21 Codon Plus, purified (Ni-NTA-agarose)
In the case of B1, the “stoichiometry N” value is reported as 2.
